What was measured:
[1] = system: E2x (6-finger) (artificial); settings: stated as Km; assay not described
[2] = system: E2cJ15E2x-VP64 (12-finger) (artificial); test: cell_activity; settings: HeLa luciferase
[3] = system: SKD-E2cJ15E2x (12-finger) (artificial); test: cell_activity; settings: HeLa luciferase
[4] = system: SKD-E2c (6-finger) (artificial); test: cell_activity; settings: HeLa luciferase
[5] = system: VP64-E2c (6-finger) (artificial); test: cell_activity; settings: HeLa luciferase
[6] = system: E2c (6-finger) (artificial); settings: stated as Km; assay not described

Substance: ACCGGAGAAACCAGGGGA (double strand) [E2X target]
- Kd [1]: 15 nM

Substance: E2p luciferase reporter (erbB2 promoter)
- activity (fold activation) [2]: 45
- activity (fold repression) [3]: 8
- activity (fold repression) [4]: 36
- activity (fold activation) [5]: 78

Substance: GGGGCCGGAGCCGCAGTG (double strand) [E2c target]
- Kd [6]: 0.5 nM

Source: patent publication US20070020627
